The record followed here is paper PMC10509710.

The target of test [1] is human full-length scavenger receptor class B type 1 (SR-B1), glycosylated (human) (UniProt Q8WTV0). The test is described as follows: flow cytometry on cells; Sf9 cells 72 h after baculovirus infection, 10 μg/ml DiI-HDL or DiI-oxLDL in ESF 921/0.5% BSA for 90 min at 4 °C; MFI compared with cells infected with empty vector.
Test [2] addresses human full-length cluster of differentiation 36 (CD36), glycosylated (human) (UniProt P16671). Described as above.
For test [3], the target named is human full-length scavenger receptor class B type 1 (SR-B1), glycosylated (human) (UniProt Q8WTV0). The test is described as follows: MST; Cy5-labeled receptor (RED-NHS, lysines) at constant 20 nM, ligand in a 16-point 1:1 dilution series; exchange buffer (50 mM Hepes pH 7.5, 150 mM NaCl, 0.025% LMNG, 0.005% CHS); 25 °C, 40% MST power; apparent Kd, one-site specific binding; molar values from average molecular weights (267.5 kDa HDL, 3500 kDa oxLDL).

In test [4] the target is human full-length cluster of differentiation 36 (CD36), glycosylated (human) (UniProt P16671). Described as above.
Sequence of human full-length cluster of differentiation 36 (CD36), glycosylated (human) (P16671 whole entry): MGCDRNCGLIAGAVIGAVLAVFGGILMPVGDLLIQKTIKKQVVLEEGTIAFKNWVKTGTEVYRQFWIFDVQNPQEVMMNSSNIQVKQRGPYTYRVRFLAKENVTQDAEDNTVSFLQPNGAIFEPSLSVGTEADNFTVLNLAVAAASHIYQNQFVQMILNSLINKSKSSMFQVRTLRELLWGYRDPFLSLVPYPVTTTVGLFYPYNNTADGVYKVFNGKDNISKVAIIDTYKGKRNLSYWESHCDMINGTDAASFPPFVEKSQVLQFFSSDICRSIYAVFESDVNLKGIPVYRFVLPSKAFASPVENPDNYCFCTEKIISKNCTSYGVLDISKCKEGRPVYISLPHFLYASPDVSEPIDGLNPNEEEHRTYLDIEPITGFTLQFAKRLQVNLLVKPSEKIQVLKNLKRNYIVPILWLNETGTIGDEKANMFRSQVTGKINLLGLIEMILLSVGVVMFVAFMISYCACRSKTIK

Sequence of human full-length scavenger receptor class B type 1 (SR-B1), glycosylated (human) (Q8WTV0 other isoform, or with tags, fused parts or gaps): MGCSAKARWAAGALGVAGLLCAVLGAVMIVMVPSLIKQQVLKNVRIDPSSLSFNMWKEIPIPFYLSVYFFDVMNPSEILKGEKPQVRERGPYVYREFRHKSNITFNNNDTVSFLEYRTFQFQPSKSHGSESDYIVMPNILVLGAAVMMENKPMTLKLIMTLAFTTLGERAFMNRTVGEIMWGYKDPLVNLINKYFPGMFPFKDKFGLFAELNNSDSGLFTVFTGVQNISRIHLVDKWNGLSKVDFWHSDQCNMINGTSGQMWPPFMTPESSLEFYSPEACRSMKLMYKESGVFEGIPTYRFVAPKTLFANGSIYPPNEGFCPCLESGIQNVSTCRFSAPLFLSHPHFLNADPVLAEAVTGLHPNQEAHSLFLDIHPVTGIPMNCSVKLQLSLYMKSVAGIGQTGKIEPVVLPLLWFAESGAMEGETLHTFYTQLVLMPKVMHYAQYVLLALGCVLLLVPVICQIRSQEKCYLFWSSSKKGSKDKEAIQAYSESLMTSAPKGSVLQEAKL
Sequence of human high-density lipoprotein (HDL), holoparticle (P02647 whole entry, looked up): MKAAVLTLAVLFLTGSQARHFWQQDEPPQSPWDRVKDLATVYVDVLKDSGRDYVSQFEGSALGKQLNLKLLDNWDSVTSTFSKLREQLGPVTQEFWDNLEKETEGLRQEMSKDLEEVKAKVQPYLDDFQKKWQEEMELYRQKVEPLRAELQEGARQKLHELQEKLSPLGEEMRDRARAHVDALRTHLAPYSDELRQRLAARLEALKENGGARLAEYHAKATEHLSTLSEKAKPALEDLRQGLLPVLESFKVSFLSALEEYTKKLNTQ
Sequence of DiI-labeled high-density lipoprotein (DiI-HDL) (P02647 whole entry, looked up): as above

On to “DiI-labeled high-density lipoprotein (DiI-HDL) (from UniProt P02647 19-267) (complex)”, for which the percent increase of DiI-HDL binding (MFI at 4 °C) against empty vector in test [1] stood at 37%.

The substance “DiI-labeled oxidized low-density lipoprotein (DiI-oxLDL) (complex)” showed a percent increase of DiI-oxLDL binding (MFI at 4 °C) against empty vector in test [2] of 21%.

As to “human high-density lipoprotein (HDL), holoparticle (from UniProt P02647 19-267) (complex)”, the Kd in test [3] stood at 194 nM; in test [4], 123 nM.
